For orientation: Kd means the constant that tells how readily two partners part at equilibrium. One may read the kon as a measure of how fast the partners come together.

The text below walks through data of article PMC11514473, “The transition state for coupled folding and binding of a disordered DNA binding domain resembles the unbound state” (Nucleic Acids Research, 2024).

Series [1] has as its target T1, CREB 285bZIP (bZIP domain of human cAMP-response element binding protein, residues 285-339, cysteines … (human)).
T1 chain: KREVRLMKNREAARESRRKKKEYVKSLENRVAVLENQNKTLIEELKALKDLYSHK
Description: stopped-flow urea refolding kinetics (intrinsic tyrosine fluorescence); 285bZIP in 8 M urea mixed 1:10 with buffer of lower urea concentrations; 2.2, 4.5 and 9.1 uM CREB; excitation 278 nm, 305 nm cut-off filter; 25.0 C; traces fit to a 2-state reversible 2P to P2 model; L and k1 extrapolated by straight line fits to the absence of urea; dimer to monomers. Conditions: both partners purified.

Series [2] concerns the target T2, CREB 285bZIP wild type (pseudo-WT, Cys to Ser) (human, UniProt P16220-1 285-339, C300S;C310S;C337S).
T2 sequence: T1 chain
Description: NMR; two-fold excess DNA over dimer; basic region folds to helix; 10 mM Mg2+; 10 mM MES pH 6.5, 150 mM NaCl, 10 mM MgCl2, 0.05% Tween-20, 25 C; NMR: 10 mM Tris-d11, 150 mM NaCl, 10 mM MgCl2, 1 mM NaN3, 5% D2O (NOE at 25 C). The conditions noted are these: protein: recombinant; tags: extra N-terminal Gly after TEV cleavage; His6-GB1 removed; chain copies: 2; label: none; blunt, self-complementary, 2 copies.

Where no end group is shown, it is not given here.

B1: CREB 285bZIP (bZIP domain of human cAMP-response element binding protein, residues 285-339, cysteines replaced with serines) (domain or fragment)
chain: T1 chain
modifications: also: homodimer
As for B1, in series [1], the Kd was 11 ± 2 nM and the association rate constant (kon) was 7.1e+06 ± 500000 M⁻¹ s⁻¹.

B2: symmetric CRE DNA (NMR) (dsDNA)
DNA 1: AGATGACGTCATCT
DNA 2: AGATGACGTCATCT
B2: the binding result in series [2] was “binds”.
